Measurements as given in the supplement of paper PMC9170038.

Key:
MS2 coat protein [1] = assay: apparent KD of MS2 coat protein; designed switch direction (-1 OFF switch, 1 ON switch): 1; higher = weaker reporter binding; conditions: Eterna round: R98
Protocol: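 RNA-MaP: designed FMN/MS2 RNA switches (84 nt design region) are transcribed on-chip within common flanks and titrated with SNAP-549-labelled MS2 coat protein (about 1-3000 nM) in 100 mM Tris pH 7.5, 80 mM KCl, 4 mM MgCl2, without or with 200 uM FMN. Median apparent KD per design; activation ratio = KD,OFF / KD,ON.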

MS2 coat protein [2] = assay: apparent KD of MS2 coat protein, switch OFF state (with FMN for OFF switches, without FMN for ON switches); designed switch direction (-1 OFF switch, 1 ON switch): 1; higher = weaker reporter binding; conditions: FMN input: 0 or 200 uM; Eterna round: R93 (includes R88 designs)
Outline: (§1)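 Binding of SNAP-549-labelled MS2 coat protein was measured on designed RNA switches transcribed on-chip from Illumina sequencing clusters. The protein rose in twofold steps from 0.7 or 1.5 nM to 3 µM, with 0.8–1.5 h per step early on and 10–20 min per step later, in 100 mM Tris-HCl pH 7.5, 80 mM KCl, 4 mM MgCl2, without or with constant ligand. Each design's apparent KD is the median of fits to its normalised cluster binding curves.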

MS2 coat protein [3] = assay: apparent KD of MS2 coat protein, switch ON state; designed switch direction (-1 OFF switch, 1 ON switch): 1; higher = weaker reporter binding; conditions: FMN input: 0 or 200 uM; Eterna round: R93 (includes R88 designs)
Outline: as §1

| Sequence | apparent KD of MS2 coat protein (MS2 coat protein [1]; input ligand: FMN 200 uM) [nM] | apparent KD of MS2 coat protein (MS2 coat protein [1]; input ligand: none) [nM] | apparent KD of MS2 coat protein (MS2 coat protein [2]) [nM] | apparent KD of MS2 coat protein (MS2 coat protein [3]) [nM] |
| --- | --- | --- | --- | --- |
| UUUAUUUUUAGAGGAUAUAUAGAGAGAGAGAGAAUAGAAGGCUAAACAUACAUGAACAUGAGGAUCACCCAUGUCACCCAUGUU [Attempt 2] | 34.3 | 28.3 | – | – |
| CACGUCCUCACAGGAUAUGCUGGACUUUGUCCAGCAGAAGGGUGAAACAUGAGGAUCACCCAUGUAAGGACGUGUAUAUUUAAU [Denovo 21] | 1470 | 187 | – | – |
| GGUCCAACAUGAGGAUAUGGCACCUUAUUGGUGCCAGAAGGCGUGUCGAUAGACAUGAGGAUCACCCAUGUAAUAAAUUGGACC [SameState #23 NG1] | 138 | 467 | – | – |
| UCCGAUGUACAUGAGGAUCACCCAUGUCAUAUGCCCGUGACACAGGAUAUCCAGGGUAGGCCAAAGGAGAAGGGUGAUCCGCGG [Lelete] | 122 | 51.8 | – | – |
| GGGUGGGUCACAGGAUAUCCCGUGAGCCACAUGAGGAUCACCCAUGUAUCACGACGAAAGAAGAAGGAGAAGGGUGACCCUGAU [Tibiiste] | 29.8 | 40.7 | – | – |
| GUAACAUGAGGAUCACCCAUGUCGUGCUAGAUGAGUUCUGGUGAGGAUAUACAUGGUAAAUAACUGUAGAAGGCACUGGGUACA [SameState #67 NG3] | 44.7 | 133 | – | – |
| AAAAUAUAAUAUAUUAACAUGAGGAUCACCCAUGUCGCUAGACAGGAUAUAUAAAAUAAAAUAAAGUAGAAGGGUCAUAUAAUA [LRO003_SS NG 3] | 93.9 | 56.4 | – | – |
| AAACUUAUCACAGGAUAUUCCUGAGGAUGCCAGGGAGAAGGGUGACUCUUGGGACAUGAGGAUCACCCAUGUUCUGUGGGAAAA [Xeusdior] | 190 | 182 | – | – |
| UAGUGUUCUCGAGGAUAUGGGUUCCGUUUUAGCCCAGAAGGCGAACAUGAGGAUCACCCAUGUAUGAAUACACAGCAGAAUUGU [Teedri] | 153 | 1750 | – | – |
| UAUAUAUAUUGAGGAUAUGCACAGGAUCACCGUGUAGAAGGCAUCAGGGAGAAGGUGCAGAGGAUCACCCUGUAAGGAUAUCAU [pwkr2 ssNG1 DX.1] | 146 | 205 | – | – |
| AAAAUAAAAUAAAUUAACAUGAGGAUCACCCAUGUCGCUAGACAGGAUAUAUAAAAUAAAAUAAAGUAGAAGGGUCAAAUAAAA [LRO001_SS NG 3] | 88.2 | 114 | – | – |
| UCACUCACGUUAGGAUAUGGAUCGGAAAACGAUCCAGAAGGAACCUGCAAACCUGAGGAACACCCAGGUUCCAAUAACGAGUGA [SameSame 8 - Jieux - Same State NG 1] | 745 | 839 | – | – |
| CGGAUCGCAUGAGGAUAUGGUCAGCUUUGCUGACCAGAAGGCAUGUCAAUAGACAUGAGGAUCACCCAUGUAGUUAAGAUCCGA [Mat - Same State NG 1 - JL Mod - D17] | 45.5 | 644 | – | – |
| UUUAUUUAUUGAGGAUAUGCACAGGAUCACCGUGUAGAAGGCAUCAGGGAGAAGGUGCAGAGGAUCACCCUGUAAGGAUAUCAC [pwkr2 ssNG1 DX.2] | 144 | 381 | – | – |
| ACGUUAAUUCGAGGAUAUCGGUGAUUUAUAUUACGAGAAGGCGAUAAUUGUGAACAACUUAUAGACAUGAGGAUCACCCAUGUA [JR_SSNG1_Sub065] | 21.3 | 28.6 | – | – |
| CGGAAAGAGAGAGAGGAUAUCCAAAGGAAAACAUGAGGAUCACCCAUGUAGAAGGUAGGAAAUUGGGAGAAGGCUCAAGAGAGAG [salish99-ss2-132] | – | – | 26.7 | 25.3 |
| CGCAAACAUGAGGAUCACCCAUGUCAUUGUGAUCAAGGAUAUGGGUUCCGAAGUGGAACACCAGAAGGUGAGUAGU [Sozaer] | – | – | 497 | 224 |
| AAGAAACAUGAGGAUCACCCAUGUAAAAAUAUGGGAGGAUAUGCGAAAAGAAACAAAGAAGCAGAAGGCCUAAGAA [75%, Ex5 sub 1, 6] | – | – | 51.1 | 15.9 |
| AAGAAACAUGAGGAUCACCCAUGUAAGAUAAACACAGGAUAUGCGAAAUAAAUAAAUAAAGCAGAAGGGUGAAGAA [Mat - Same State 1 - Tesla mod - D149] | – | – | 19.4 | 6.88 |

| Sequence | apparent KD of MS2 coat protein (MS2 coat protein [1]; input ligand: FMN 200 uM) [nM] | apparent KD of MS2 coat protein (MS2 coat protein [1]; input ligand: none) [nM] | apparent KD of MS2 coat protein (MS2 coat protein [2]) [nM] | apparent KD of MS2 coat protein (MS2 coat protein [3]) [nM] |
| --- | --- | --- | --- | --- |
| AAAAAAAGAUCACAGGAUAUACGAAAAAAAACAUGAGGAUCACCCAUGUAAAAAAAAAAAAAAAAGUAGAAGGGUGAUCCAAAAAA | – | – | 11 | 28.5 |
| AAAUAAAUGACUGAGGAUAUAUCGAUGAAAACAUGAGGAUCACCCAUGUGAUAAUAAAAAGGGUGGUAGAAGGUAGUCAACAAAC [Mod 12 of Pariah 4 by Hyphema in Round 1] | – | – | 207 | 55.5 |
| AGCGGUAGGACAGGAUAUGGUGACUUCAAGCGGCCAGAAGGGUCCCGACAUGAGGAUCACCCAUGUCUUCCAGGCAGGAAGCGC [Bequques] | 443 | 239 | – | – |
| AAAAUACAUGAGGAUCACCCAUGUGAAAAUAUGGGAGGAUAUACGAAAAAUAAAUAAAACGUAGAAGGCCUAAAAA [SS! 1 MT 2] | – | – | 165 | 22.2 |
| AAACAAACAACGCAGGAUAUGCAAAAACCCACAUGAGGAUCACCCAUGUCCCAACAACAAACAAAGCAGAAGGGCGAACAAACAAA [High Roller1] | – | – | 86.8 | 37.3 |
| CCGAAUGUCACAGGAUAUGGUCCGGGCACGCGACCAGAAGGGUGAUCUCACAUGAGGAUCACCCAUGUGUAGGCGUUAGACUAC [Dierata] | 191 | 96.6 | – | – |
| GGAAGACAUGAGGAUCACCCAUGUGGGAAUAUGGGAGGAUAUACAAAGACGAGAGUCAGAGUAGAAGGCCUAGGAU [salish99-ss1-100] | – | – | 138 | 44 |
| GAGCCGCGGGCACAGGAUAUGCUCGGGCAAACAUGAGGAUCACCCAUGUGCGGCCUAAAUACGACGCAGAAGGGUGCUUGUGUGU [Lausisan] | – | – | 102 | 36.5 |
| CGAAGACAUGAGGAUCACCCAUGUGGGAUUAUGGGAGGAUAUACAAAGACGAGAGUCAGAGUAGAAGGCCUAGGAU [salish99-ss1-125(!)] | – | – | 47.8 | 22.4 |
| AGGAAACAUGAGGAUCACCCAUGUAAAAAUAUCACAGGAUAUGGAAACACGAAAGUGAAACCAGAAGGGUGAAAAG [77%, Mat - Mod of Eli, 13] | – | – | 32 | 13.2 |
| AAAAAACAUGAGGAUCACCCAUGUAAAAAAAUGGGAGGAUAUACAAAAACAAAAAAAAAAGUAGAAGGCCUGAAAA [same state 9] | – | – | 419 | 41.3 |
| AGAAUAAAAAGACAGGAUAUCCAAAAGAAAACAUGAGGAUCACCCAUGUAAAAAAAAAUAAAAUGGGAGAAGGGUCAAAAUAAAG [Mat - Same State 2 - JL mod - D69] | – | – | 44 | 18 |
| CGCGAACAUGAGGAUCACCCAUGUAGCGGGAAACAAGGAUAUGGGAGGCGAAAUCGCGGAUCAGAAGGUGUAAGCG [Laaratat] | – | – | 12.4 | 14.7 |
| AGGAAACAUGAGGAUCACCCAUGUAUAAAAAUGGGAGGAUAUACUAAGACGAAAGUCAUAGUAGAAGGCCUAAAAA [76%, Meechl, 8] | – | – | 52.6 | 24.3 |
| UAAUAAUAAACCAAGGAUAUGGAGUAUAGCACAUGAGGAUCACCCAUGUGUAGCGUGGGUUAGUACCAGAAGGUGGAGUGAAAUG [JR_SS002_Sub1001] | – | – | 82.8 | 87.8 |
| AAAGACAUAGUUCAGGAUAUGGUAAUAGUCACAUGAGGAUCACCCAUGUGCAUUUAUAUGCGCGAUCAGAAGGGAGGUAGAUAUA [SameState2 Malc#18] | – | – | 17.7 | 18.8 |
| GAGAAGGAGAGAGAGGAUAUCCAAAGGAAAACAUGAGGAUCACCCAUGUAAAAGGUAGGAAAUUGGGAGAAGGCUCAAGAGAGAG [salish99-ss2-108(!)] | – | – | 34.3 | 33 |
| CGGCAAGAGAGAGAGGAUAUCCAAAGGAAAACAUGAGGAUCACCCAUGUAGAAGGUAGGAAAUUGGGAGAAGGCUCAAGAGAGAG [salish99-ss2-135] | – | – | 18.4 | 23.2 |
